Key:
[1] = Variation in body weight as an indication of toxicity, Colon 26 tumor-bearing mice; assay type: in vivo, mouse
Protocol: Mouse colon cancer Colon 26 tumor under successive cultivation under mouse skin was cut into blocks of approximately 2 mm square, and transplanted to under mouse skin using a trochar. […] As an indication of toxicity, variation in body weight was also measured (Table 2).

[2] = system: Mouse colon cancer Colon 26 tumor; assay: Antitumor action, relative tumor volume after single intravenous administration; assay type: in vivo; details: with smaller administration amount; single i.v. administration
Protocol: As an indication of toxicity, variation in body weight was also measured (Table 2).

Substance: condensate of a block copolymer of mono-methoxypolyethylene glycol having a molecular weight of approximately 12000 and polyglutamic acid having a polymerization number of approximately 7, with 7-ethyl-10-hydroxycamptothecin [Compound 2]
- variation in body weight ([1]; dose 90.0 mg/kg i.v. once, day 0 after administration): 1.0
- variation in body weight ([1]; dose 90.0 mg/kg i.v. once, day 2 after administration): 0.96
- variation in body weight ([1]; dose 90.0 mg/kg i.v. once, day 5 after administration): 1.00
- variation in body weight ([1]; dose 90.0 mg/kg i.v. once, day 12 after administration): 0.90
- variation in body weight ([1]; dose 90.0 mg/kg i.v. once, day 14 after administration): 0.83
- variation in body weight ([1]; dose 180.0 mg/kg i.v. once, day 0 after administration): 1.0
- variation in body weight ([1]; dose 180.0 mg/kg i.v. once, day 2 after administration): 0.91
- variation in body weight ([1]; dose 180.0 mg/kg i.v. once, day 5 after administration): 0.99
- variation in body weight ([1]; dose 180.0 mg/kg i.v. once, day 7 after administration): 0.99
- variation in body weight ([1]; dose 180.0 mg/kg i.v. once, day 9 after administration): 1.04
- variation in body weight ([1]; dose 180.0 mg/kg i.v. once, day 12 after administration): 0.94
- variation in body weight ([1]; dose 180.0 mg/kg i.v. once, day 14 after administration): 0.94

Substance: condensate of a block copolymer of methoxypolyethylene glycol having a molecular weight of approximately 12000 and polyglutamic acid having a polymerization number of approximately 28, with 7-ethyl-10-hydroxycamptothecin [Compound 1]
- antitumor effect as compared with compound 2 (smaller drug content) [2]: higher antitumor effect
- variation in body weight ([1]; dose 22.5 mg/kg i.v. once, day 0 after administration): 1.0
- variation in body weight ([1]; dose 22.5 mg/kg i.v. once, day 2 after administration): 0.98
- variation in body weight ([1]; dose 22.5 mg/kg i.v. once, day 5 after administration): 1.02
- variation in body weight ([1]; dose 22.5 mg/kg i.v. once, day 9 after administration): 1.06
- variation in body weight ([1]; dose 22.5 mg/kg i.v. once, day 12 after administration): 1.03
- variation in body weight ([1]; dose 22.5 mg/kg i.v. once, day 14 after administration): 0.96
- variation in body weight ([1]; dose 45.0 mg/kg i.v. once, day 0 after administration): 1.0
- variation in body weight ([1]; dose 45.0 mg/kg i.v. once, day 2 after administration): 0.94
- variation in body weight ([1]; dose 45.0 mg/kg i.v. once, day 5 after administration): 0.91
- variation in body weight ([1]; dose 45.0 mg/kg i.v. once, day 7 after administration): 0.97
- variation in body weight ([1]; dose 45.0 mg/kg i.v. once, day 12 after administration): 1.03
- variation in body weight ([1]; dose 45.0 mg/kg i.v. once, day 14 after administration): 1.04

— patent US20060067910A1, “High-molecular weight derivatives of camptothecins” (priority 2002, published 2006)
